Experimental data published in US20230340137A1, “METHODS, THERAPIES AND USES FOR TREATING CANCER” (PFIZER INC., priority 2020, published 2023).

System: adult patients with advanced multiple myeloma
Assay: Phase 1 clinical study NCT03269136, safety (DLT, CRS)
Type: in vivo
Source text: This Example illustrates an ongoing Phase 1 open-label, multicenter clinical study of PF-06863135 (BCMA×CD3 bispecific) as monotherapy and in combination with sasanlimab, lenalidomide or pomalidomide, in adult patients with advanced multiple myeloma who have relapsed from or are refractory to standard therapy. The study has been registered on ClinicalTrials.gov with identifier NCT03269136 and was first posted August 2017. Study results for Part 1 of the trial and additional arms for the study are described in this Example.
Part 1 of the Study is the […] single agent dose escalation arm at the dose levels of 0.1, 0.3, 1, 3, 10, 30, and 50 μg/kg Q1W by intravenous (IV) administration, and at the dose levels of 80, 130, 215, 360, 600 and 1000 μg/kg Q1W by subcutaneous (SC) administration. Upon reaching maximum tolerated dose (MTD)/maximum administered dose (MAD), patients can be treated at a dose level selected from the foregoing dose levels described in this paragraph, and below the MTD/MAD fora Q2W administration, both IV and SC, to further support the recommended phase 2 dose (RP2D) decision. For the study, dose limiting toxicity observation period is set at 21 days for Q1W dosing and 28 days for Q2W dosing. The treatment cycle, aka cycle, for Q1W dosing would be 3 weeks, and for Q2W dosing would be four weeks.
Clinical Outcome of Part 1 of the Study. As of 15 Apr. 2020, a total of 23 patients were enrolled in Part 1 of the study and had been treated with PF-06863135 administered intravenously (IV) at 0.1 (N=2), 0.3 (N=3), 1 (N=2), 3 (N=3), 10 (N=2), 30 (N=5), and 50 (N=6) μg/kg. As of Aug. 21, 2020, a total of 30 patients were enrolled in Part 1 of the study and had been treated with PF-06863135 administered subcutaneously (SC) at 80 (N=6), 130 (N=4), 215 (N=4), 360 (N=4), 600 (N=6) and 1000 (N=6) μg/kg. Safety and efficacy data were available for in 23 IV and 30 SC treated patients per IMWG (International Myeloma Working Group) criteria.
Part 1.1 of the Study is an alternative maintenance dose escalation arm for single agent PF-06863135. If excessive toxicity occurs or the maximum tolerated dose (MTD)/maximum administered dose (MAD) is reached at a dose level that is earlier than desired in Part 1 of the study described above, a priming dose will be administered one week prior to the day 1 cycle 1 administration of the dose (maintenance dose) at this dose level and for all subsequent dose levels in the dose escalation that may be initiated for Part 1.1. The priming dosing will be at a lower dose level than the maintenance dose.
Clinical outcome of Part 1.1 of the Study. As of Feb. 4, 2021, a total of 20 patients were enrolled and treatment in Part 1.1 of the Study, with cohort of 7 patients at a 600 μg/kg priming dose followed by 1000 μg/kg Q1W dosing, and a cohort of 13 patients at a 600 μg/kg priming dose followed by 1000 μg/kg Q2W dosing. The CRS in these two cohorts is described in Table 13. Introducing of priming dose decreased medium duration of CRS by 50%, from 4 days to 2 days. The dose frequency in part 1.1 of the study (Q1W v. Q2W) had no impact on the CRS. Patient response of Part 1.1 of the Study is described in Table 14.

[1] = 600 μg/kg priming, 1000 μg/kg Q1W or Q2W SC, N = 20
[2] = all SC treated patients (Part 1)

PF-06863135: heterodimeric humanized full-length bispecific antibody, one BCMA binding arm and one CD3 binding arm, modified human IgG2Δa Fc
Patients with CRS (number) (10 μg/kg IV cohort): 1
patients with CRS (percent) (10 μg/kg IV cohort): 50.0%
Patients with CRS (number) (30 μg/kg IV cohort): 4
patients with CRS (percent) (30 μg/kg IV cohort): 80.0%
patients with dose limiting toxicities (DLTs) (30 μg/kg IV cohort): 1 patient
patients in whom CRS also occurred after second, third or fourth dose (50 μg/kg IV): 3 patients
Patients with CRS (number) (50 μg/kg IV cohort): 6
patients with CRS (percent) (50 μg/kg IV cohort): 100.0%
patients with dose limiting toxicities (DLTs) (50 μg/kg IV cohort): 1 patient
CRS Grade 1 (number of patients) (80 μg/kg Q1W SC, N = 6): 2
CRS Grade 2 (number of patients) (80 μg/kg Q1W SC, N = 6): 1
CRS Mean duration (80 μg/kg Q1W SC, N = 6): 1 days
Patients with CRS (number) (80 μg/kg Q1W SC, N = 6): 3
CRS Grade 1 (number of patients) (130 μg/kg Q1W SC, N = 4): 2
CRS Grade 2 (number of patients) (130 μg/kg Q1W SC, N = 4): 0
CRS Mean duration (130 μg/kg Q1W SC, N = 4): 3 days
Patients with CRS (number) (130 μg/kg Q1W SC, N = 4): 2
CRS Grade 1 (number of patients) (215 μg/kg Q1W SC, N = 4): 3
CRS Grade 2 (number of patients) (215 μg/kg Q1W SC, N = 4): 0
CRS Mean duration (215 μg/kg Q1W SC, N = 4): 3 days
Patients with CRS (number) (215 μg/kg Q1W SC, N = 4): 3
CRS Grade 1 (number of patients) (360 μg/kg Q1W SC, N = 4): 2
CRS Grade 2 (number of patients) (360 μg/kg Q1W SC, N = 4): 1
CRS Mean duration (360 μg/kg Q1W SC, N = 4): 1.7 days
Patients with CRS (number) (360 μg/kg Q1W SC, N = 4): 3
CRS Grade 1 (number of patients) (600 μg/kg Q1W SC, N = 6): 4
CRS Grade 2 (number of patients) (600 μg/kg Q1W SC, N = 6): 2
CRS Mean duration (600 μg/kg Q1W SC, N = 6): 1.7 days
Patients with CRS (number) (600 μg/kg Q1W SC, N = 6): 6
decrease of duration of CRS by introducing priming dose (600 μg/kg priming then 1000 μg/kg vs 1000 μg/kg without priming, SC): 50%
CRS Grade 1 (number of patients) [1]: 11
CRS Grade 2 (number of patients) [1]: 9
CRS Mean duration [1]: 2 days
Patients with CRS (number) [1]: 20
patients with CRS (percent) [1]: (100%)
CRS Grade 1 (number of patients) (1000 μg/kg Q1W SC, N = 6): 5
CRS Grade 2 (number of patients) (1000 μg/kg Q1W SC, N = 6): 1
CRS Mean duration (1000 μg/kg Q1W SC, N = 6): 4 days
Patients with CRS (number) (1000 μg/kg Q1W SC, N = 6): 6
toxicities (600 and 1000 μg/kg SC): tolerable and manageable
patients with dose limiting toxicities (DLTs) (IV cohorts, 23 patients, febrile neutropenia Grade 3 and electrocardiogram QT prolongation Grade 1): 2 patients
CRS onset after dosing (IV cohorts, each patient with CRS): ≤ 2 days
Cytokine release syndrome (CRS), rank among adverse events (Part 1 of the study): most common adverse event reported
impact of dose frequency (Q1W v. Q2W) on the CRS (Part 1.1, 600 μg/kg priming, 1000 μg/kg SC): no impact
patients with dose limiting toxicities (DLTs) (SC cohorts, 30 patients): No patients
CRS onset after dosing (SC cohorts, primarily): ≤ 2 days
Patients with CRS (number) (all IV cohorts): 11 patients
patients with maximum Grade 1 CRS (number) (all IV treated patients): 6
patients with maximum Grade 1 CRS (percent) (all IV treated patients): 26.1%
patients with maximum Grade 2 CRS (number) (all IV treated patients): 5
patients with maximum Grade 2 CRS (percent) (all IV treated patients): 21.7%
patients with maximum Grade 1 CRS (number) [2]: 18
patients with maximum Grade 1 CRS (percent) [2]: 60.0%
patients with maximum Grade 2 CRS (number) [2]: 5
patients with maximum Grade 2 CRS (percent) [2]: 16.7%
CRS severity in SC-treated vs IV-treated patients (despite higher overall dose exposure in SC-treated patients): less severe
timing of CRS relative to doses (results of Part 1 of the Study): primarily occurs after the initial dose
